Experimental data from US20170129921A1 (University of California, published 2017).
Where two headings read alike, the source gives them in different places.

Columns and labels:
Human C5a receptor 2 [1] = molecular target: T1, Human C5a receptor 2 (human, UniProt Q9P296 1-337); assay: 125I-C5a displacement, SPA on Flp-In CHO-C5a2 membranes
T1 construct: whole, on cells; also used here for native C5a2 on human monocyte derived macrophages and for the human C5a2 of the DiscoveRx PathHunter kit; also called C5a2; C5L2
T1 sequence (Q9P296 whole entry): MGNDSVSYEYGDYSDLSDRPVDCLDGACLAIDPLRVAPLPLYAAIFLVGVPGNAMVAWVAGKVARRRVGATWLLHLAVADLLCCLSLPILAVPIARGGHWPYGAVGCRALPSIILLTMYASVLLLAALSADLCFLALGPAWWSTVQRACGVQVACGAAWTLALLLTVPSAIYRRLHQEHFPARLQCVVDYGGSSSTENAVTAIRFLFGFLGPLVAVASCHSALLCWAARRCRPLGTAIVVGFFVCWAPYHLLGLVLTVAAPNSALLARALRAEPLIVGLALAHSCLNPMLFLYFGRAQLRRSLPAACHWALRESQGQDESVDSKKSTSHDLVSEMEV
Method: P32 and P59 were previously shown to have no activity (either as an agonist or antagonist) up to a concentration of 100 μM, when the library was previously screened for activity at C3aR and C5a1²⁷.
(§1) C5a2 receptor binding studies were performed using a modification of a previously described scintillation proximity assay (SPA) method⁴⁸. Briefly, C5a2 SPA studies were performed in 96-well white isoplates with clear flat bottoms (Perkin Elmer, Waltham, Mass., USA). SPA beads (200 μg/well) were added, following the addition of various concentrations of competing ligands or buffer (6 pM to 500 μM) in a total volume of 80 μL of assay buffer (50 mM Tris-HCl, pH 7.4, 0.5% BSA, 5 mM MgCl₂, 1 mM CaCl₂). ¹²⁵I-C5a (˜20 pM) (specific activity, 2200 Ci mmol⁻¹) (Perkin Elmer) was added to C5a2 membrane preparations (˜2 μg/well). The final reaction volume per well comprised 20 μL of ligand/buffer, 20 μL of SPA beads, 20 μl of membrane and the assay was initiated by the addition of 20 μL of ¹²⁵I-C5a. The plate was then sealed using TopSeal-A (Perkin Elmer) sealing film and incubated with shaking for 1 h at room temperature. Radioligand binding was then assessed for 30 s/well using a 1450 Microbeta scintillation counter (Perkin Elmer).

C5a receptor 1 = molecular target: T2, C5a receptor 1 (human, UniProt P21730 1-350); assay: 125I-C5a displacement on C5aR1 membranes
T2 construct: whole, on cells; Also used here for native C5a1 on human macrophages; also called C5a1; CD88
T2 sequence (looked up): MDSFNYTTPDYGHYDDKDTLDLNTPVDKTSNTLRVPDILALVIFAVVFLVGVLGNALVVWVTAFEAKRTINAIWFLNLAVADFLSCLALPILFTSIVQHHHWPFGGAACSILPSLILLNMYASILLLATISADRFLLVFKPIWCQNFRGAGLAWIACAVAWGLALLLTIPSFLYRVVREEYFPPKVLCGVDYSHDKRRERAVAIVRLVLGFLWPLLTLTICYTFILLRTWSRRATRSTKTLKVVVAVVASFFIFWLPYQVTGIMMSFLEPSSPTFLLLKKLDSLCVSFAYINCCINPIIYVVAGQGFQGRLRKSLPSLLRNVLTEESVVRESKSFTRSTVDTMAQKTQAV

C5a2-Venus [2] = molecular target: T3, C5a2-Venus (UniProt Q9P296 1-337); assay: cell-based or functional assay
T3 sequence (Q9P296 whole entry): as the sequence (Q9P296 whole entry) above

C5a2-Venus [3] = molecular target: T3, C5a2-Venus; assay: cell-based or functional assay; remark: listed apart in the source
Human C5a receptor 2 [4] = molecular target: T1, Human C5a receptor 2; assay: 125I-C5a displacement, SPA on Flp-In CHO-C5a2 membranes; remark: listed apart in the source
Method: To further address this issue, C5a2 SPA was used to test for the binding of C3a or C3a-des arg to C5a2.
as §1

B1: Peptide P59, Ac-LIRLWR-OH (peptide)
peptide: Ac-LIRLWR-OH
notes: Synthetic, computationally designed hexapeptide based on the C-terminus of C5a
B1 was tested, and the Ki (Human C5a receptor 2 [1]) was 48 µM, the Ki (C5a receptor 1) was 466 µM and the “fold higher efficacy of β-arrestin 2 recruitment than the affinity for C5a2” value (C5a2-Venus [2]) was roughly 6 fold. For the same binder, the “C5a2-β-arrestin 2 BRET Recruitment (% of C5a)” value (C5a2-Venus [3]) was 52.9 % of C5a.

B2: Human recombinant C5a (ligand, UniProt P01031 678-751, looked up)
chain: TLQKKIEEIAAKYKHSVVKKCCYDGACVNNDETCEQRAARISLGPRCIKAFTECCVVASQLRANISHKDMQLGR
notes: also called native C5a
B2 was tested, and the Ki (Human C5a receptor 2 [1]) was 0.0013 µM and the “C5a2-β-arrestin 2 BRET Recruitment (% of C5a)” value (C5a2-Venus [3]) was 100 % of C5a.

B3: Peptide P32, Ac-RHYPYWR-OH (peptide)
peptide: Ac-RHYPYWR-OH
notes: Synthetic, computationally designed heptapeptide based on the C-terminus of C5a
With B3 the Ki (Human C5a receptor 2 [1]) was 223 µM, the Ki (C5a receptor 1) was 234 µM and the “fold higher efficacy of β-arrestin 2 recruitment than the affinity for C5a2” value (C5a2-Venus [2]) was roughly 37 fold. The “C5a2-β-arrestin 2 BRET Recruitment (% of C5a)” value (C5a2-Venus [3]) was 28.8 % of C5a.

B4: Human isolated C5a-des Arg (ligand, UniProt P01031 678-750, looked up)
chain: TLQKKIEEIAAKYKHSVVKKCCYDGACVNNDETCEQRAARISLGPRCIKAFTECCVVASQLRANISHKDMQLG
In the case of B4, the Ki (Human C5a receptor 2 [4]) is reported as 0.0015 µM.
